# Test results: doi:10.1101/2025.11.26.690573
# Tests used:
# [1] = target: biotinylated N8~CRL1 with wild type RBX1 (UniProt Q15843); assay: BLI; CSN and N8~CRL1 in a saturating amount of CSN5i-3; who was immobilised not given
# [2] = target: biotinylated N8~CRL1 with wild type RBX1 (UniProt Q15843); assay: BLI; CSN and N8~CRL1 in a saturating amount of CSN5i-1a; who was immobilised not given
substance,measurement,setting,value
"COP9 signalosome (CSN), eight-subunit complex, tag-free (from UniProt Q13098 1-491; P61201 1-443; Q9UNS2 1-409; Q9BT78 1-406; Q92905 1-334; Q7L5N1 1-327; Q9H9Q2 1-239; Q99627 1-209)",KD with CSN5i-3,[1],26 nM
same,KD with CSN5i-1a,[2],1800 nM
